Assay [1] addresses human rhinovirus strain RV2 (purified virus) (human rhinovirus 2 (RV-A, minor group)). Description: ELISA; fluid phase competition: RV89 (25 µg/mL) or RV2 (2 µg/mL in the methods, 5 µg/mL in the results) pre-incubated with soluble receptor (50 µg/mL) overnight at 4 °C, then added to plate-bound receptor. A general note: ELISA stands for enzyme-linked immunosorbent assay.
Assay [2] addresses human rhinovirus strain RV89 (purified virus) (human rhinovirus 89 (RV-A, major group)). The assay is described as above.

Some results are limits rather than exact numbers.

Consider “recombinant human low density lipoprotein receptor (LDLR) (from UniProt P01130 22-788)”, for which, in assay [1], the percent inhibition of RV2 binding to plate-bound LDLR (50 µg/mL LDLR) was over 60%. Take “recombinant human ICAM-1/CD54 (intercellular adhesion molecule 1) (from UniProt P05362 28-480) (receptor)”: the percent inhibition of RV89 binding to plate-bound ICAM-1 (50 µg/mL ICAM-1, 25 µg/mL RV89) in assay [2] was over 95%.

Source of the values: article PMC7350259.
